{
  "source": "patent US20180237756",
  "key": {"[1]": {"biological_target": "T1, TgoT DNA polymerase (V93Q D141A E143A A485L) (Thermococcus gorgonarius) (UniProt P56689)", "T1 sequence": "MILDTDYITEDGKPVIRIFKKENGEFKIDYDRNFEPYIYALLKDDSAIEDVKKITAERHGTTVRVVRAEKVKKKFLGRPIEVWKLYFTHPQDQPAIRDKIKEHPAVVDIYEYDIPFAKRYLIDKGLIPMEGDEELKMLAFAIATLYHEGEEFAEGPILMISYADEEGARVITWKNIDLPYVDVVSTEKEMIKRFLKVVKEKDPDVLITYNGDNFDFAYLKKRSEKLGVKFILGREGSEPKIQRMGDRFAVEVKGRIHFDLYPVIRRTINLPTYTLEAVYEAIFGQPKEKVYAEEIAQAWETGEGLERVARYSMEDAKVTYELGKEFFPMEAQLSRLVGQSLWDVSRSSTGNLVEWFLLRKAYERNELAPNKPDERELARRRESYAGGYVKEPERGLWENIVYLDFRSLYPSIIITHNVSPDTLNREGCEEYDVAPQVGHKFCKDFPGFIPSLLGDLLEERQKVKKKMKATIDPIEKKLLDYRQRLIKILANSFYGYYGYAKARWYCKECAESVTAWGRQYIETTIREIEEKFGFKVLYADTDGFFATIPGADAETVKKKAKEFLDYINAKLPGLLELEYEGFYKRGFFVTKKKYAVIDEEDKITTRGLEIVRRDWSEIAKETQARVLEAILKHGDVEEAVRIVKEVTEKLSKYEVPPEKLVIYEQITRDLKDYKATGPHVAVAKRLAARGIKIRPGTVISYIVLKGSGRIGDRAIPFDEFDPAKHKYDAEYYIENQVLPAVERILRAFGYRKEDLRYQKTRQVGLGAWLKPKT", "settings": "does not synthesise HNA much beyond six incorporations"}, "[2]": {"test_system": "TAT (trans-activator of transcription) (HIV)", "experiment": "competition"}},
  "data": [
    {"substance": "E. coli tRNA supE gene primer-template", "values": [
      {"measurement": "activity (hNTP incorporations)", "setting": "[1]", "value": 6}
    ]},
    {"substance": "miniTAR RNA", "values": [
      {"measurement": "IC50", "setting": "[2]; IC50 of HNA anti-TAR aptamer T5S8-7 (binds TAR RNA) displacing TAT from immobilized miniTAR, CI95 1.3-2.8 nM", "value": 1.9, "unit": "nM"},
      {"measurement": "IC50", "setting": "[2]; IC50 of RNA anti-TAR aptamer R06 (binds TAR RNA) displacing TAT from immobilized miniTAR, CI95 166-675 nM", "value": 313, "unit": "nM"}
    ]}
  ]
}
